Assay results published in US20240018501A1, “HIGHER PERFORMANCE PROTEASES FOR SCARLESS PEPTIDE TAG REMOVAL” (priority 2017, published 2024).

Experiments:
OBu-AGPAIR = test system: T1, OBu-AGPAIR
T1 sequence: AGPAIR

Pyr-AAAVK = test system: T2, Pyr-AAAVK
T2 sequence: AAAVK

Pyr-AAIV = test system: T3, Pyr-AAIV
T3 sequence: AAIV

Pyr-AAI = test system: T4, Pyr-AAI
T4 sequence: AAI

Pyr-AA = test system: T5, Pyr-AA
T5 sequence: AA

Pyr-APVLA = test system: T6, Pyr-APVLA
T6 sequence: APVLA

Pyr-A = test system: T7, Pyr-A
T7 sequence: A

Pyr-LGPAIK = test system: T8, Pyr-LGPAIK
T8 sequence: LGPAIK

modified CylLS [1] = target: modified CylLS
modified CylLS [2] = test: Kinetic analysis of full length CylA and CylA-96-412 against modified CylLS (LC/MS); type: biochemical, Enterococcus faecalis
Description: Targeted peptides were dissolved in H2O to a final concentration of 3 mg/mL. To a 85 μL solution of peptides, 10 μL of 500 mM HEPES buffer (pH 7.5) was added followed by 5 μL of 0.5 mg/mL AspN protease (for modified CylLL and CylLS peptides), 0.1 mg/mL CylA protease (for modified and unmodified CylLL, CylLS peptides, and modified HalA2-GDVQAE peptide) or 0.1 mg/mL LicP protease (for LicA2). For cleavage tests of the engineered GDVQAE peptides, CylA was added to a final concentration of 0.01 mg/mL, whereas the peptide was added to a concentration of 0.3 mg/mL with 50 mM HEPES buffer (pH 7.5). The protease cleavage reaction mixtures were kept at 25° C. for 1 to 48 h. Osmotic pressure was adjusted with NaCl solution with a final concentration of 150 mM. The digested peptide mixture was directly used for antimicrobial and hemolytic assay. For the kinetic analysis of CylA and its mutant proteins, His6-CylA-27-412 and His6-CylA-27-412-E95A proteins were added to a final concentration of 500 ng/mL and 2.5 μg/mL (22 nM and 110 nM), respectively, with modified CylLS supplied at a concentration of 0.3 mg/mL (36 μM). The reactions were allowed to proceed at room temperature and were stopped by 1% TFA at different time points for LC/MS analysis. Halα and Halβ were obtained by factor Xa cleavage of modified HalA1Xa and HalA2 Xa peptides using the procedure of Y. Shi, et al. J. Am. Chem. Soc. 2011, 133, 2338. CylLL″ and CylLS″ were prepared in the same way using modified CylLL-E-1K and CylLS-E-1K peptides as described in W. Tang and W. A. van der Donk, Nat. Chem. Biol. 2013, 9, 157.
As full length CylA is not available due to its self-cleavage, His6-CylA-27-412-E95A was chosen to serve as a substituent of full length CylA as the self-cleavage was abolished whereas the conserved catalytic C-terminal region of CylA remained unchanged. To obtain the mature protease CylA-96-412, His6-CylA-27-412 was aged at 4° C. for 12 hours to allow the self-cleavage to proceed until CylA-96-412 was the dominant peak monitored by MALDI-TOF MS. The aged protein mixture was directly used as a substituent of CylA-96-412. To test the proteases' activities, CylA-96-412 and His6-CylA-27-412-E95A were supplied with a final concentration of 22 nM and 110 nM, respectively, with modified CylLS served at a concentration of 36 μM. The reactions were stopped at 3 minute, 6 minute, 12 minute and 24 minute by 1% TFA and the formation of mature CylLS″ was monitored by liquid chromatography MS (LC/MS). […] The production of core peptide was analyzed by extracted ion chromatography monitoring the desired product mass 1017 (M+2H^+).

CylA = CylA self-cleavage (SDS-PAGE, MALDI-TOF MS); type: biochemical, Enterococcus faecalis
Description: E. coli BL21 (DE3) cells were transformed with pRSFDuet-1/CylA-27-412, pRSFDuet-1/CylA-27-412-E95A, pRSFDuet-1/CylA-27-412-S359A or pRSFDuet-1/LicP-25-433 vectors and plated on an LB plate containing 50 mg/L kanamycin. A single colony was picked and grown in 20 mL of LB with kanamycin at 37° C. for 12 h and the resulting culture was inoculated into 2 L of LB. Cells were cultured at 37° C. until the OD at 600 nm reached 0.5, cooled and IPTG was added to a final concentration of 0.1 mM. The cells were cultured at 18° C. for another 10 h before harvesting. The cell pellet was resuspended on ice in LanP start buffer (20 mM HEPES, 1 M NaCl, pH 7.5 at 25° C.) and lysed by homogenization. The lysed sample was centrifuged at 23,700×g for 30 min and the pellet was discarded. The supernatant was passed through 0.45-μm syringe filters and the protein was purified by immobilized metal affinity chromatography (IMAC) loaded with nickel as described in B. Li et al. Methods Enzymol. 2009, 458, 533. […] Protein concentration was quantified by its absorbance at 280 nm. The extinction coefficient for His6-CylA-27-412, His6-CylA-27-412-E95A and His6-CylA-27-412-S359A was calculated as 30,830 M^−1 cm^−1. The extinction coefficient for His6-LicP-25-433 was calculated as 46,300 M^−1 cm^−1. […]

[3] = target: T9, LanA3 encoded by the genome of B. cereus VD156
T9 chain: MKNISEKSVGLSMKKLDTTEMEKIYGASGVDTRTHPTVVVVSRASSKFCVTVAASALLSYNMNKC

[4] = target: dehydrated and cyclized LanA2 from B. licheniformis 9945A

Molecule: His6-ElxO
- Relative (kcat/Km) (Glx-AAIVK): < 0.01
- kcat/Km (reduction by His6-ElxO, NADPH absorbance at 340 nm) (Glx-AAIVK): < 0.03 M⁻¹ s⁻¹
- reduction by His6-ElxO with NADPH, LC-MS (OBu-AGPAIR): All the peptides were reduced as confirmed by LC-MS analysis
- Relative (kcat/Km) (Obu-AAIVK): 0.38
- kcat/Km (reduction by His6-ElxO, NADPH absorbance at 340 nm) (Obu-AAIVK): 0.92 M⁻¹ s⁻¹
- Relative (kcat/Km) (Obu-RAIVK): 0.62
- kcat/Km (reduction by His6-ElxO, NADPH absorbance at 340 nm) (Obu-RAIVK): 1.51 M⁻¹ s⁻¹
- Relative (kcat/Km) (Pyr-AAAVK): 0.12
- kcat/Km (reduction by His6-ElxO, NADPH absorbance at 340 nm) (Pyr-AAAVK): 0.29 M⁻¹ s⁻¹
- Relative (kcat/Km) (Pyr-AAIAK): 0.65
- kcat/Km (reduction by His6-ElxO, NADPH absorbance at 340 nm) (Pyr-AAIAK): 1.59 M⁻¹ s⁻¹
- Relative (kcat/Km) (Pyr-AAIVA): 0.55
- kcat/Km (reduction by His6-ElxO, NADPH absorbance at 340 nm) (Pyr-AAIVA): 1.33 M⁻¹ s⁻¹
- Relative (kcat/Km) (Pyr-AAIVKBBIKAAKK): 5.83
- kcat/Km (reduction by His6-ElxO, NADPH absorbance at 340 nm) (Pyr-AAIVKBBIKAAKK): 14.2 M⁻¹ s⁻¹
- Relative (kcat/Km) (Pyr-AAIVK): 1
- kcat/Km (reduction by His6-ElxO, NADPH absorbance at 340 nm) (Pyr-AAIVK): 2.43 M⁻¹ s⁻¹
- Relative (kcat/Km) (Pyr-AAIV): 0.47
- kcat/Km (reduction by His6-ElxO, NADPH absorbance at 340 nm) (Pyr-AAIV): 1.13 M⁻¹ s⁻¹
- Relative (kcat/Km) (Pyr-AAI): 0.02
- kcat/Km (reduction by His6-ElxO, NADPH absorbance at 340 nm) (Pyr-AAI): 0.06 M⁻¹ s⁻¹
- reduction by His6-ElxO with NADPH (Pyr-AAVLK): His6-ElxO reduced both peptides
- Relative (kcat/Km) (Pyr-AA): < 0.01
- kcat/Km (reduction by His6-ElxO, NADPH absorbance at 340 nm) (Pyr-AA): < 0.03 M⁻¹ s⁻¹
- reduction by His6-ElxO with NADPH, LC-MS (Pyr-APVLA): All the peptides were reduced as confirmed by LC-MS analysis
- Relative (kcat/Km) (Pyr-A): < 0.01
- kcat/Km (reduction by His6-ElxO, NADPH absorbance at 340 nm) (Pyr-A): < 0.03 M⁻¹ s⁻¹
- reduction by His6-ElxO with NADPH, LC-MS (Pyr-BPVLAAVAVAKKK): All the peptides were reduced as confirmed by LC-MS analysis
- Relative (kcat/Km) (Pyr-DAIVK): 0.12
- kcat/Km (reduction by His6-ElxO, NADPH absorbance at 340 nm) (Pyr-DAIVK): 0.29 M⁻¹ s⁻¹
- Relative (kcat/Km) (Pyr-KAIVK): 1.74
- kcat/Km (reduction by His6-ElxO, NADPH absorbance at 340 nm) (Pyr-KAIVK): 4.22 M⁻¹ s⁻¹
- reduction by His6-ElxO with NADPH (Pyr-LGPAIK): His6-ElxO reduced both peptides
- Relative (kcat/Km) (Pyr-MAIVK): 6.4
- kcat/Km (reduction by His6-ElxO, NADPH absorbance at 340 nm) (Pyr-MAIVK): 15.5 M⁻¹ s⁻¹
- Relative (kcat/Km) (Pyr-NAIVK): 3.13
- kcat/Km (reduction by His6-ElxO, NADPH absorbance at 340 nm) (Pyr-NAIVK): 7.6 M⁻¹ s⁻¹
- Relative (kcat/Km) (Pyr-PAIVK): 0.05
- kcat/Km (reduction by His6-ElxO, NADPH absorbance at 340 nm) (Pyr-PAIVK): 0.13 M⁻¹ s⁻¹
- Relative (kcat/Km) (Pyr-RAIVK): 2.26
- kcat/Km (reduction by His6-ElxO, NADPH absorbance at 340 nm) (Pyr-RAIVK): 5.5 M⁻¹ s⁻¹
- reduction by His6-ElxO with NADPH, high-resolution LC-MS (lactocin S): confirming the formation of dihydrolactocin S

B1: His6-CylA-27-412-E95A (protein)
chain: MKRIYIFLLCFAVLLPVGGKTAQAKEQAGEQYLLLEHVKDKSKLLDTAEQFHIHADVIEEIGFAKVTGEKQKLAPFTKKLAEKVGADVIEKPIANTAVNETESVISGSPAWGLDGILELKEYLWFAAKQTDSYRTYQIERGHPDVKVALIDSGLDLDHPDLKASVNTNGGWNYIDGKPVSGDPTGHGTQTAGMINIIAPDVTITPYQVLDEKGGDSYNIMKAMVDAVNDGHEVINISTGSYTSLDREGKVLMKAYQRAANYAAKHQVLVFSSAGNKGVNLDEMRKTENKVHLPSALKHVVSVGSNMKSNNISPYSNQGREIEFTAPGGYLGETYDQDGMVRVTDLVLTTYPKGKDNTALDQMLNIPKGYSLSYGTSLAAPQVAGTAALVISEYRERHHRKPSAKQVHHILRKSALDLGKPGKDVIYGYGEVRAYQALKMMNKE
- cleavage by His6-CylA-27-412-E95A (modified CylLS [1]): Incubation of modified CylLS with His6-CylA-27-412-E95A resulted in cleavage
- fold lower rate of producing CylLS″ than CylA-96-412 (LC/MS; 110 nM enzyme, 36 µM substrate) (modified CylLS [1]): exhibited an approximate 10-fold lower rate of producing CylLS″
- cleavage of modified CylLS (modified CylLS [2]): resulted in cleavage
- lower rate of producing CylLS″ (modified CylLS [2]; enzyme 110 nM, modified CylLS 36 μM, versus CylA-96-412): ~10 fold
- CylA self-cleavage during expression or purification (CylA): only one band corresponding to the full length protein

B2: LanP of B. cereus VD156 (without signal sequence, with His6 tag) (protein)
chain: MGSSHHHHHHSQDPTQIAYYSILIRDNTDFNTVLDKLSKDNQEVVYSIPEVNLIQVKGEKGKIISGIGLESIEEINPSTGEFKTYTPNINDQKVLDNKAIWDVQWDIKRITNNGESYKLHSPSGKVSVALIDSGYPENHPDIKSISIQKSKNLVPKGGYKGNEENETGNIHQLTDRTGHGTSVLSQVNADGLMKGVAPGMPVNMYRVFGESSAEGSWIIKGIIEAAKDKNDVINISAGSYLLKNGTYSDGSGNNRAEIKAYEKAIHYANKKGSIVVSALGNDSININIYSELLSILNSKIKDEGKSATGIVQDIPAQLAQVVSVASTGMDSKVSSFSNYGKNIIDFTAPGGDIKLLNKFGADVWMAEEMFKKEMILVAHPQGGYYFNYGNSLATPKVSGALALVIDKYGYKNKPNKAINHLKRNTNAENEIDLYKALQE
- cleavage by the corresponding LanP, MALDI-TOF MS [3]: the core peptide is detected ... and the leader peptide is also observed

B3: LanP from B. licheniformis 9945A (without signal sequence, with His6 tag) (protein)
chain: MGSSHHHHHHSQDPDRYTIYLESPAHHDDWVKTLNERNIKLVYSVEEIGLYQIEGRQKEVQELAAEINYINSHNQSVAMQPASLHNTAPAEATIFGGTPTLWDDFQWDMRKATNNGQTYQITEGSKNTIVGIIDSGIDMNHPDLKENILSVRNFVPKGGLRGQEPYEKGDINDSTDYLGHGTFVAGQIAANGLMKGIAPETGIRSYRVFGGKSADTVWIIDAIIQAAIDDVDIINVSFGTFLVKQNRKNKQMPDTNDLAEIKAFKKAVSFAHKKGSAVVASIGNEGLDLKDKNAVFEYWRSTKQEDLSADGKVILIPAQLPNVVTVSSIGPSGMRSVFSNYGKNVVDIAADGGDLRLLNEVGEDRYYGEGLFRQEYILGAAPGVTYTFSIGTSIAAPKVSGALALLIDQKQLHDKPDKAVKILLKNADRNADKIDTGAGVLNVYRALTD
- cleavage by the corresponding LanP, MALDI-TOF MS [4]: fully modified core peptide is observed after protease treatment (inset) ... the leader peptide is also observed
